Results reported in the Immune Epitope Database (IEDB).

Columns and labels:
HLA-A*02:02 = experiment: IEDB peptide-MHC binding, purified MHC/competitive/radioactivity; ≥ and ≤ were set here for values at or beyond the usual limits of such assays
HLA-A*02:03 = experiment: as above
HLA-A*02:01 = experiment: IEDB peptide-MHC binding, cellular MHC/competitive/fluorescence; ≥ and ≤ were set here for values at or beyond the usual limits of such assays
HLA-A*68:02 = experiment: as above
HLA-A*02:06 = experiment: as above
[1] = source organism: Vaccinia virus WR
[2] = source organism: Influenza A virus
[3] = source organism: Mammarenavirus guanaritoense

Sequence	IC50 (HLA-A*02:02; [1]) [µM]	IC50 (HLA-A*02:03; [1]) [µM]	IC50 (HLA-A*02:01; [1]) [µM]	IC50 (HLA-A*68:02; [1]) [µM]	IC50 (HLA-A*02:06; [1]) [µM]	further results
GIKNLKSLL	2.14	2.62	54.5	≥ 70	61.7	
TTQIIKLLPFA						IC50 (HLA-A*02:02; [2]): 2.19 µM; IC50 (HLA-A*02:03; [2]): 3.43 µM; IC50 (HLA-A*02:01; [2]): 5.95 µM; IC50 (HLA-A*68:02; [2]): 8.22 µM; IC50 (HLA-A*02:06; [2]): 11.6 µM
SLKRFTHTT	0.825	0.0091	5.66	42	59.7	
TLNEYKQLYT	0.144	0.773	11.5	≥ 70	≥ 70	
YIENTNQGNI	1.22	0.582	34.5	42	6.2	
DTIAHINTLI	1.16	0.114	10.3	≥ 70	62.7	
LIKTLSPAHL	1.85	0.356	11.6	33.3	10.2	
RLTILGKDA						IC50 (HLA-A*02:02; [2]): 1.56 µM; IC50 (HLA-A*02:03; [2]): 3.51 µM; IC50 (HLA-A*02:01; [2]): 10.9 µM; IC50 (HLA-A*68:02; [2]): ≥ 70 µM; IC50 (HLA-A*02:06; [2]): ≥ 70 µM
SVQLSNNKYV	1.22	0.82	55	11.3	8.83	
LATLNTLIT	1.16	1.55	10.6	13.9	14.2	
AMHDKKIDIL	0.387	1.18	8.94	≥ 70	≥ 70	
EIDVSEVKTL	4.95	2.24	≥ 70	8.12	56.1	
NVKSKLLWFL	2.29	0.633	33.2	7.3	31.1	
RLRQDTEDIV	0.134	0.284	5.95	35.5	7.49	
LVDKEDTDIV	3.7	1.68	≥ 70	56.8	27.2	
RTLFQQMRDVL						IC50 (HLA-A*02:02; [2]): 1.89 µM; IC50 (HLA-A*02:03; [2]): 3.83 µM; IC50 (HLA-A*02:01; [2]): 13.7 µM; IC50 (HLA-A*68:02; [2]): ≥ 70 µM; IC50 (HLA-A*02:06; [2]): ≥ 70 µM
TLLNETAKVI	2.86	2.13	16.9	6.34	8.54	
AAFEDLRLL						IC50 (HLA-A*02:02; [2]): 4.45 µM; IC50 (HLA-A*02:03; [2]): 1.47 µM; IC50 (HLA-A*02:01; [2]): 15.5 µM; IC50 (HLA-A*68:02; [2]): 18.1 µM; IC50 (HLA-A*02:06; [2]): 6.19 µM
SAFDERRNKYL						IC50 (HLA-A*02:02; [2]): 1.09 µM; IC50 (HLA-A*02:03; [2]): 2.48 µM; IC50 (HLA-A*02:01; [2]): 24.3 µM; IC50 (HLA-A*68:02; [2]): 14.1 µM; IC50 (HLA-A*02:06; [2]): ≥ 70 µM
ITFLRPVLKA	3.16	0.718	≥ 70	21.4	18	
WLTPFEKEFT	2.37	1.55	15.7	≥ 70	30.8	
NMKPNFWSRI	1.68	0.193	23.4	13.1	13.9	
LLKETIQKDI	3.06	0.782	9.03	13.2	23.4	
KQNKFGDSPL	0.09	0.216	5.55	31.6	5.08	
HLRASTTENA	0.488	0.038	20.1	36.3	≥ 70	
FMNDLQVSR						IC50 (HLA-A*02:02; [3]): 0.249 µM; IC50 (HLA-A*02:03; [3]): 0.915 µM; IC50 (HLA-A*02:01; [3]): 6.25 µM; IC50 (HLA-A*68:02; [3]): 26.3 µM; IC50 (HLA-A*02:06; [3]): 33.6 µM
EILSNTTKTL	0.345	0.101	10.1	15.1	≥ 70	
LITNTKSDNI	2.25	3.08	≥ 70	20.7	18.8	
EMKYALINLV	1.26	0.283	7.36	≥ 70	9.84	
